Measurements from doi:10.1101/2020.06.02.095570 (bioRxiv, 2020).

B1: dehydrodolichyl diphosphate synthase (DHDDS), full-length human (enzyme)
chain: MSWIKEGELSLWERFCANIIKAGPMPKHIAFIMDGNRRYAKKCQVERQEGHSQGFNKLAETLRWCLNLGILEVTVYAFSIENFKRSKSEVDGLMDLARQKFSRLMEEKEKLQKHGVCIRVLGDLHLLPLDLQELIAQAVQATKNYNKCFLNVCFAYTSRHEISNAVREMAWGVEQGLLDPSDISESLLDKCLYTNRSPHPDILIRTSGEVRLSDFLLWQTSHSCLVFQPVLWPEYTFWNLFEAILQFQMNHSVLQKARDMYAEERKRQQLERDQATVTEQLLREGLQASGDAQLRRTRLHKLSARREERVQGFLQALELKRADWLARLGTASA

Columns and labels:
cross-linking = target: the molecule itself; experiment: cross-linking
[1] = target: B1; experiment: crystal structure

Row | binding result [1] | Binder | binding result (cross-linking)
1 | – | B1 | binds
2 | binds | sNgBRΔ167*-175* (soluble Nogo-B receptor, residues 73*-293*, loop 167-175 removed) (domain or fragment) RGGSCLAAAHHRMRWRADGRSLEKLPVHMGLVITEVEQEPSFSDIASLVVWCMAVGISYISVYDHQGIFKRNNSRLMDEILKQQQELLGLDCSKDKDDQVLNCHLAVKVLSPEDGKADIVRAAQDFCQLVAQKQKRPTDLDVDTLASLLSSNGCPDPDLVLKFGPVDSTLGFLPWHIRLTEIVSLPSHLNISYEDFFSALRQYAACEQRLGK | –
